The record followed here is patent publication US20260194540A1 (ARIZONA BOARD OF REGENTS ON BEHALF OF ARIZONA STATE …, published 2026).

The test deals with T1, TDP-43 from healthy human brain tissue (human, UniProt Q13148 1-414).
T1 construct: also called healthy TDP-43; healthy IP TDP-43
Put plainly: phage ELISA on human brain tissue. (ELISA stands for enzyme-linked immunosorbent assay.)

T1 sequence (Q13148 whole entry): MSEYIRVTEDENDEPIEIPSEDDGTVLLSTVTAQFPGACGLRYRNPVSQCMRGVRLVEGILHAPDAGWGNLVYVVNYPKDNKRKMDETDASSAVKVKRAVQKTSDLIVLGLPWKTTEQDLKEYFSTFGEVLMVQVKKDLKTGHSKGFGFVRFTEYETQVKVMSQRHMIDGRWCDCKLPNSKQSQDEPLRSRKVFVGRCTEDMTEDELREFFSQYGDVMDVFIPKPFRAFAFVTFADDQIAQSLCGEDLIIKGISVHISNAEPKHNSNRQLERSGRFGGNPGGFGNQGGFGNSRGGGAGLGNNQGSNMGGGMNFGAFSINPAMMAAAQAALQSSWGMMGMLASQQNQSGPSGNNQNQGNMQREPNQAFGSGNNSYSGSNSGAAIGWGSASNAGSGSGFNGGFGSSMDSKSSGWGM

B1: TDP-43 monomer clone #5 (scFv)
scFv: MAEVQLLESGGGLVRPGGSLRLSCAASGFTFSSYAMSWVRQAPGKGLEWVSDIANTGDATGYADSVKGRFTISRDNSKNTLYLQMNSLRAEDTAVYYCAKTGAAFDYWGQGTLVTVSSGGGGSGGGGSGGGGSTDIQMTQSPSSLSASVGDRVTITCRASQSISSYLNWYQQKPGKAPKLLIYAASTLQSGVPSRFSGSGSGTDFTLTISSLQPEDFATYYCQQSSSDPATFGQGTKVEIKRAA
notes: Tested as scFv attached to a phage particle, tagged with a signal moiety when used for detection; also called monomer phage #5
With B1, the binding result is on record as “binds”.
